Substrate: NCCP(=O)(O)O
Assay: purified protein
Conditions: saturating CTP (4 mM), 7 mM MgCl2, room temperature
From the text: coupled pyrophosphate release assay (EnzChek, MESG/PNP), initial rates on Tde-PntC (Tde1415)

B1: Tde-PntC (Tde1415) (Treponema denticola ATCC 35405) (protein)
chain: MIKQAVILAGGLGSRLKDKTKTMPKGFLEIGGTAIVEQSVQKLLAHGIEKIVIGTGHCNEYYDNLAKKYPAIITVKNENYANTGSMGTLEVCASFVNESFLLLESDLIYDSAGLFSLINDERKNLILASGATKSGDEVYLEADEKNCLTGLSKNRDALKNIFGELVGITKLTKSTLDKMCAYAKIHHSDLPKMEYEHALLEAAKTIPVAIKRIEYFVWREIDNEDHLEMAVKNIYPHIVENEKLRAVRREVLLNPGPATTTDSVKYAQVSADICPREKAFGDLMQWLCDELKLFALASETNPDEYETVMFGCSGTGADEVMVSSCVPDTGRLLVIDNGSYGARMAKIADIYKIPMDIFKSSTYEPLDLQKLEAEFATKKYTHLACVYHETTTGLLNPLHIICPMAKKYGMVTIVDAVSAYCGMPMDLKSLGIDFMASTSNKNIQGMAGVGFVICNKAELEKTKDYPMRNYYLNLYDQYAYFAKTHQTRFTPPVQTMYALRQAVLETKQETVQKRYERYTACWNILVAAIKKLGLKMLVKEEHQSHFITAILEPETPKYSFEALHDFAAEHSFTIYPGKLGNIDTFRIANIGDIQPEEMRRFTVKLKEYMNGIGVGV
- Km: 16 ± 5 µM

Source: paper PMC6697681, “The predominance of nucleotidyl activation in bacterial phosphonate biosynthesis” (Nature Communications, 2019)
